Data taken from patent US20120039897A1 (PHILIPPS UNIVERSITAET MARBURG, published 2012).

B1: recombinant Aβ(21-37) autoantibody 54/62 (antibody, V domains shown)
VH: EVQLVESGGGVVQPGGSLRLSCAASGFTFSSYWMSWVRQAPGKGLEWVASVKQDGSEKYYVDSVKGRFTISRDNAKNTLYLQMNSLRAEDTAVYYCARDGSSWYRDWFDPWGQGTLVTVS
VL: DIVLTQSPATLSLSPGERVTITCRASQSVNSYLAWYQQKPGQAPRLLIYGASTRATGIPDRFSGSGSGTDFTLTISRLEPEDFAVYYCQQYGSSQGTFGPGTKVDIKR
B2: recombinant Aβ(21-37) autoantibody 50/62 (antibody, V domains shown)
VH: EVQLVESGGGVVQPGGSLRLSCAASGFTFSSYWMSWVRQAPGKGLEWVASVKQDGSEKYYVDSVKGRFTISRDNAKNTLYLQMNSLRAEDTAVYYCARDGSSWYRDWFDPWGQGTLVTVS
VL: DIQMTQSPATLSLSPGERAALSCRASQSVNSYLAWYQQKPGQAPRLLIYGAASRATGIPARFSGSGSGTDFTLTISRLEPEDFAVYYCQQYGSSQGTFGPGTKVDIKR
B3: recombinant Aβ(21-37) autoantibody 50/67 (antibody, V domains shown)
VH: EVQLVESGGGVVQPGGSLRLSCAASGFTFRSYWMHWVRQAPGKGLEWVASVKQDGSEKYYVDSVKGRVTISLDTSKNQFSLKLSSVTAADTAVYYCARDGSSWYRDWFDPWGQGTLVSVS
VL: DIQMTQSPATLSLSPGERAALSCRASQSVNSYLAWYQQKPGQAPRLLIYGAASRATGIPARFSGSGSGTDFTLTISRLEPEDFAVYYCQQYGSSQGTFGPGTKVDIKR
B4: recombinant Aβ(21-37) autoantibody 55/68 (antibody, V domains shown)
VH: EVQLVESGGGVVQPGGSLRLSCAASGITFRSYDMSWVRQAPGKGLEWVASVKQDGSEKYYVDSVKGRFTVSRDNAKNTLYLQMNSLRAEDTAVYYCARDAGRWADLAFDIWGQGTLVTVS
VL: DIQMTQSPGTLSLSPGERAALSCRASQSVSSYLAWYQQKPGQAPRLLIYAASIRATGIPDRFSGSGSGTDFTLTISRLEPEDFAVYYCQQYGSSQGTFGPGTKVDIKR
B5: recombinant Aβ(21-37) autoantibody 55/69 (antibody, V domains shown)
VH: EVQLVESGGGVVQPGGSLRLSCAASGFTFRSYWMHWVRQAPGKGLEWVASVKQDGSEKYYVDSVKGRVTITADRAKNTLYLQMNSLRAEDTAVYYCARDGSSWYRDWFDPWGQGTLVTVS
VL: DIQMTQSPGTLSLSPGERAALSCRASQSVSSYLAWYQQKPGQAPRLLIYAASIRATGIPDRFSGSGSGTDFTLTISRLEPEDFAVYYCQQYGSSQGTFGPGTKVDIKR
B6: recombinant Aβ(21-37) autoantibody 50/69 (antibody, V domains shown)
VH: EVQLVESGGGVVQPGGSLRLSCAASGFTFRSYWMHWVRQAPGKGLEWVASVKQDGSEKYYVDSVKGRVTITADRAKNTLYLQMNSLRAEDTAVYYCARDGSSWYRDWFDPWGQGTLVTVS
VL: DIQMTQSPATLSLSPGERAALSCRASQSVNSYLAWYQQKPGQAPRLLIYGAASRATGIPARFSGSGSGTDFTLTISRLEPEDFAVYYCQQYGSSQGTFGPGTKVDIKR
B7: recombinant Aβ(21-37) autoantibody 55/62 (antibody, V domains shown)
VH: EVQLVESGGGVVQPGGSLRLSCAASGFTFSSYWMSWVRQAPGKGLEWVASVKQDGSEKYYVDSVKGRFTISRDNAKNTLYLQMNSLRAEDTAVYYCARDGSSWYRDWFDPWGQGTLVTVS
VL: DIQMTQSPGTLSLSPGERAALSCRASQSVSSYLAWYQQKPGQAPRLLIYAASIRATGIPDRFSGSGSGTDFTLTISRLEPEDFAVYYCQQYGSSQGTFGPGTKVDIKR
B8: recombinant Aβ(21-37) autoantibody 54/68 (antibody, V domains shown)
VH: EVQLVESGGGVVQPGGSLRLSCAASGITFRSYDMSWVRQAPGKGLEWVASVKQDGSEKYYVDSVKGRFTVSRDNAKNTLYLQMNSLRAEDTAVYYCARDAGRWADLAFDIWGQGTLVTVS
VL: DIVLTQSPATLSLSPGERVTITCRASQSVNSYLAWYQQKPGQAPRLLIYGASTRATGIPDRFSGSGSGTDFTLTISRLEPEDFAVYYCQQYGSSQGTFGPGTKVDIKR
B9: recombinant Aβ(21-37) autoantibody 50/68 (antibody, V domains shown)
VH: EVQLVESGGGVVQPGGSLRLSCAASGITFRSYDMSWVRQAPGKGLEWVASVKQDGSEKYYVDSVKGRFTVSRDNAKNTLYLQMNSLRAEDTAVYYCARDAGRWADLAFDIWGQGTLVTVS
VL: DIQMTQSPATLSLSPGERAALSCRASQSVNSYLAWYQQKPGQAPRLLIYGAASRATGIPARFSGSGSGTDFTLTISRLEPEDFAVYYCQQYGSSQGTFGPGTKVDIKR
B10: recombinant Aβ(21-37) autoantibody 47/56 (antibody, V domains shown)
VH: EVQLVESGGGVVQPGGSLRLSCAASGFTFRSYWMSWVRQAPGKGLEWVASVKQDGSEKYYVDSVKGRFTISRDTSKNTLYLQMNSLRAEDTAVYYCARDASSWYRDWFDPWGQGTLVTVS
VL: EIVLTQSPATLSLSPGERVTITCRASQSVNSYLAWYQQKPGQAPRLLIYGASTRATGIPDRFSGSGSGTDFTLTISRLEPEDFAVYYCQQYGSSQGTFGPGTKVDIKR
B11: recombinant Aβ(21-37) autoantibody 51/62 (antibody, V domains shown)
VH: EVQLVESGGGVVQPGGSLRLSCAASGFTFSSYWMSWVRQAPGKGLEWVASVKQDGSEKYYVDSVKGRFTISRDNAKNTLYLQMNSLRAEDTAVYYCARDGSSWYRDWFDPWGQGTLVTVS
VL: EIVLTQSPATLSLSPGERVTITCRESQGIRNYLAWYQQKPGQAPRLLIYGASTRATGIPDRFSGSGSGTDFTLTISRLEPEDFAVYYCQQYGSSQGTFGPGTKVDIKR

What was measured:
[1] = biological target: T1, Aβ(1-40 Cys) oligomer (Example 12A); experiment: Biacore, antibody captured on anti-human Ig chip, cys-dimer peptide injected; legend: (-) indicates no binding
T1 construct: also called Aβ(1-40 Cys) dimer; cys-dimer peptide
Description: (§1) All transfectants that expressed immunoglobulin efficiently were tested in an ELISA based on binding to amyloid β peptide. Biosensor data is ranked on a qualitative affinity binding assessment of the antibody to the cys-dimer peptide as described below.
(§2) An anti-human immunoglobulin biosensor chip was prepared using a human antibody capture kit (Biacore, Sweden) as per manufacturer's instructions at flow rate of 5 μl/min with a 6 minute contact time during […] immobilisation. Approximately 10000 resonance units were achieved on all channels.

[2] = biological target: amyloid β peptide (antigen of the EIA of Table 2); experiment: ELISA (EIA), amyloid β peptide immobilised; legend: (-) indicates no binding
Description: as §1
Aβ(1-40) monomer, Aβ(1-40) oligomer, Aβ(1-40 Cys) oligomer, and control plate using bovine serum albumin (Sigma) or Aprotinin (Sigma) were immobilized at 1 μg/ml in PBS (50 μl per well) on a Nunc Maxisorb 96-well plate overnight at 4° C. Wells were washed once with 350 μl Wash Buffer (1×PBS, 0.05% (v/v) Tween-20 (Sigma)). Wells were then blocked with Blocking Buffer (2% (w/v) Difco Skim milk (BD) in PBS, 50-150 μl per well) for 2 hours at room-temperature and washed once with 350 μl Wash Buffer.

[3] = biological target: T1, Aβ(1-40 Cys) oligomer (Example 12A); experiment: Biacore, antibody captured on anti-human Ig chip, peptide injected
Description: as §2

[4] = biological target: T2, Aβ(1-40) monomer (Example 12A); experiment: as above
T2 construct: Sigma peptide, HFIP treated, kept in DMSO
Description: as §2

T1 sequence (peptide, as listed by the source): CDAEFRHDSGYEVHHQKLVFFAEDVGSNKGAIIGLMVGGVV
amyloid β peptide (antigen of the EIA of Table 2), sequence (peptide, as listed by the source): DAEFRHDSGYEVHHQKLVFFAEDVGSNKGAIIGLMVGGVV

| Binder | binding result [1] | binding result [2] | binding result [3] | binding result [4] |
| --- | --- | --- | --- | --- |
| B1 | no binding (tested: peptide 20-50 µg/ml) | no binding (tested: 100 µg/ml starting concentration) | – | – |
| B2 | no binding (tested: peptide 20-50 µg/ml) | no binding (tested: 100 µg/ml starting concentration) | – | – |
| B3 | no binding (tested: peptide 20-50 µg/ml) | no binding (tested: 100 µg/ml starting concentration) | – | – |
| B4 | no binding (tested: peptide 20-50 µg/ml) | no binding (tested: 100 µg/ml starting concentration) | – | – |
| B5 | no binding (tested: peptide 20-50 µg/ml) | no binding (tested: 100 µg/ml starting concentration) | – | – |
| B6 | – | no binding (tested: 100 µg/ml starting concentration) | – | – |
| B7 | no binding (tested: peptide 20-50 µg/ml) | no binding (tested: 100 µg/ml starting concentration) | – | – |
| B8 | no binding (tested: peptide 20-50 µg/ml) | no binding (tested: 100 µg/ml starting concentration) | – | – |
| B9 | no binding (tested: peptide 20-50 µg/ml) | no binding (tested: 100 µg/ml starting concentration) | – | – |
| B10 | – | no binding (tested: 100 µg/ml starting concentration) | no binding | no binding |
| B11 | no binding (tested: peptide 20-50 µg/ml) | no binding (tested: 100 µg/ml starting concentration) | – | – |
